Measured values taken from publication PMC12397275 (Nature Communications, 2025).

Molecular target: T1, 670-689 VP3 peptide (rhesus rotavirus RRV strain)
T1 construct: source: synthetic peptide (Gencript)
Experiment: BLI
Settings: both partners purified

B1: PFDN3 protein (His tag removed) (natural protein)
chain: MAAVKDSCGKGEMATGNGRRLHLGIPEAVFVEDVDSFMKQPGNETADTVLKKLDEQYQKYKFMELNLAQKKRRLKGQIPEIKQTLEILKYMQKKKESTNSMETRFLLADNLYCKASVPPTDKVCLWLGANVMLEYDIDEAQALLEKNLSTATKNLDSLEEDLDFLRDQFTTTEVNMARVYNWDVKRRNKDDSTKNKA
notes: also called non-Tagged PFDN3; human PFDN3; source: bought: Abcam (ab139201), His tag cleaved with thrombin
binding result: binds
